Experimental data from paper PMC5250619.

Legend:
Test in all cases: BLI
[1] = target: CAP256-VRC26.01 Fab (human)
[2] = target: CAP256-VRC26.03 Fab (human)
[3] = target: CAP256-VRC26.10 Fab (human)

“BG505.SOSIP.664 soluble HIV-1 Env trimer (from UniProt Q2N0S6 1-860) (complex)” gave a Kd [1] of 680 nM, a koff [1] of 0.0071 s⁻¹ and a Kd [2] of 64 nM. The koff [2] was 0.0041 s⁻¹, the kon [2] was 63000 M⁻¹ s⁻¹ and the Kd [3] was 84 nM. The koff [3] was 0.0045 s⁻¹ and the kon [3] was 54000 M⁻¹ s⁻¹.
